Source: publication doi:10.1101/2020.09.22.308395

Molecular target: UDP-GlcNAc 4-epimerase (Gne) from Campylobacter jejuni (Campylobacter jejuni)
Test: SEC-MALLS

UDP-GlcNAc 4-epimerase (Gne) from Campylobacter jejuni (enzyme)
stoichiometry N: 2
